Target: T1, full-length human Apaf-1 (residues 1–1248) (human), O14727
T1 chain: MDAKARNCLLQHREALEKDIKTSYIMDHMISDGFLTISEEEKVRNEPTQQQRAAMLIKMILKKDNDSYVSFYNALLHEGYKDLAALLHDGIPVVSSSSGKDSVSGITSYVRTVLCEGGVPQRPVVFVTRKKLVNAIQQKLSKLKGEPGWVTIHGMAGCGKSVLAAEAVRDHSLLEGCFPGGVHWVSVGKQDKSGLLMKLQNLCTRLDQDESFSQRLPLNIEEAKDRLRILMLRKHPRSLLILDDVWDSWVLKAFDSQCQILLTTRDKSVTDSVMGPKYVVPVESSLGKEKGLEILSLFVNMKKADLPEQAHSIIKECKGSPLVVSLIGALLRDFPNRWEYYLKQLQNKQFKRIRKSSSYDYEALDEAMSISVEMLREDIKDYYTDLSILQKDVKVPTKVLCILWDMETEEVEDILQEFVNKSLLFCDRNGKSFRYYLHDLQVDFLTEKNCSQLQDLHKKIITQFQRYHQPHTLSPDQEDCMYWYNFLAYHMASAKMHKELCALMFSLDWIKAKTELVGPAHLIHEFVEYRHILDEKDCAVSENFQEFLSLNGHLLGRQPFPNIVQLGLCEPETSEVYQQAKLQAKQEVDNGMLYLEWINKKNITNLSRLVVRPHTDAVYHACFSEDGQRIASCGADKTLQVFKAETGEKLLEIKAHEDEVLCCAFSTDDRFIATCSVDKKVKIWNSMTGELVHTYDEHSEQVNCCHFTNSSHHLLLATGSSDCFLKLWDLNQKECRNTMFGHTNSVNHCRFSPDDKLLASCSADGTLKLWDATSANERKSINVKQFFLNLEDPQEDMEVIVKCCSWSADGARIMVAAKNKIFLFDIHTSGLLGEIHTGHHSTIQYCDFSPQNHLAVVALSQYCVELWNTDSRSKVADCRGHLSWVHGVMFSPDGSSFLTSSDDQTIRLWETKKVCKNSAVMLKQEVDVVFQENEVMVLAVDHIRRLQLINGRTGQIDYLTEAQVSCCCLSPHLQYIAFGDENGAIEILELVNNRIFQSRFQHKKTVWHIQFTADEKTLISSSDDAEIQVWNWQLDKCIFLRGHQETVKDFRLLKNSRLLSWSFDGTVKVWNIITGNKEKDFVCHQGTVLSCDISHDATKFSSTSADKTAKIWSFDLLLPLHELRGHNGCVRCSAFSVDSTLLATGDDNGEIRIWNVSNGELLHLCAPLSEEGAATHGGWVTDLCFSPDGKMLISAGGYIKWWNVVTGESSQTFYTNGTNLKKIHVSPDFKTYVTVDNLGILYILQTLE
Experiment: cryo-EM structure; apoptosome assembled from full-length Apaf-1 with horse CytC (Sigma) at ~1:2 and 1 mM dATP; ~5 μM on grids; 3.8 Å overall, ~5 Å in the spokes after local masking
Conditions: remark: other sources report otherwise

B1: full-length human Apaf-1 (residues 1–1248), O14727 1-1248 (natural protein)
chain: MDAKARNCLLQHREALEKDIKTSYIMDHMISDGFLTISEEEKVRNEPTQQQRAAMLIKMILKKDNDSYVSFYNALLHEGYKDLAALLHDGIPVVSSSSGKDSVSGITSYVRTVLCEGGVPQRPVVFVTRKKLVNAIQQKLSKLKGEPGWVTIHGMAGCGKSVLAAEAVRDHSLLEGCFPGGVHWVSVGKQDKSGLLMKLQNLCTRLDQDESFSQRLPLNIEEAKDRLRILMLRKHPRSLLILDDVWDSWVLKAFDSQCQILLTTRDKSVTDSVMGPKYVVPVESSLGKEKGLEILSLFVNMKKADLPEQAHSIIKECKGSPLVVSLIGALLRDFPNRWEYYLKQLQNKQFKRIRKSSSYDYEALDEAMSISVEMLREDIKDYYTDLSILQKDVKVPTKVLCILWDMETEEVEDILQEFVNKSLLFCDRNGKSFRYYLHDLQVDFLTEKNCSQLQDLHKKIITQFQRYHQPHTLSPDQEDCMYWYNFLAYHMASAKMHKELCALMFSLDWIKAKTELVGPAHLIHEFVEYRHILDEKDCAVSENFQEFLSLNGHLLGRQPFPNIVQLGLCEPETSEVYQQAKLQAKQEVDNGMLYLEWINKKNITNLSRLVVRPHTDAVYHACFSEDGQRIASCGADKTLQVFKAETGEKLLEIKAHEDEVLCCAFSTDDRFIATCSVDKKVKIWNSMTGELVHTYDEHSEQVNCCHFTNSSHHLLLATGSSDCFLKLWDLNQKECRNTMFGHTNSVNHCRFSPDDKLLASCSADGTLKLWDATSANERKSINVKQFFLNLEDPQEDMEVIVKCCSWSADGARIMVAAKNKIFLFDIHTSGLLGEIHTGHHSTIQYCDFSPQNHLAVVALSQYCVELWNTDSRSKVADCRGHLSWVHGVMFSPDGSSFLTSSDDQTIRLWETKKVCKNSAVMLKQEVDVVFQENEVMVLAVDHIRRLQLINGRTGQIDYLTEAQVSCCCLSPHLQYIAFGDENGAIEILELVNNRIFQSRFQHKKTVWHIQFTADEKTLISSSDDAEIQVWNWQLDKCIFLRGHQETVKDFRLLKNSRLLSWSFDGTVKVWNIITGNKEKDFVCHQGTVLSCDISHDATKFSSTSADKTAKIWSFDLLLPLHELRGHNGCVRCSAFSVDSTLLATGDDNGEIRIWNVSNGELLHLCAPLSEEGAATHGGWVTDLCFSPDGKMLISAGGYIKWWNVVTGESSQTFYTNGTNLKKIHVSPDFKTYVTVDNLGILYILQTLE
- stoichiometry N: 7

— PMC4691890
